Patent US20160348147A1, “SYSTEMS AND DEVICES FOR PROTEASE DETECTION BASED ON ENGINEERED POLYMERS AND BIOPOLYMERS AND METHODS OF USE” (DUKE UNIVERSITY, priority 2014, published 2016)
“And” between values parts separate entries of the source, which are not always exact repeats. Equal values may be shown once.

Legend:
[1] = Thermal behavior by optical turbidimetry and dynamic light scattering; format: physicochemical; conditions: 100 μM in buffer
Description: (§1) We confirmed the purity and molecular weight of the purified peptides by electrophoresis (10-20% gradient […] SDS-PAGE, Thermo Scientific, CA) and by matrix-assisted laser desorption/ionization mass spectrometry. Mass spectrometry samples were prepared by mixing the enzymatic reaction product with sinapinic acid in 1:10 ratio. 1 μL of the sample/matrix mixture was then loaded on the grid and the measurements were performed on a Voyager-DE-Pro instrument (Applied Biosystems, Germany). To determine the concentration of the ELP-substrate fusion solutions we used a calculated extinction coefficient (Gill, S. C. & Vonhippel, P. H. Analytical Biochemistry 1989, 182, 319-326) or lyophilized the polypeptide solution. We studied the thermal behavior of the ELP-substrate fusion constructs in both proteolysis buffer (see below) and diluted human serum in the presence and absence of MMP-1 using optical turbidimetry on a temperature-programmed UV-vis spectrometer (Cary 300, Agilent Technologies). To characterize the size of the micelles and aggregates, we used single angle dynamic light scattering (DLS; DynaPro, Protein Solution).
FIG. 2 presents optical densities at 350 nm (OD350) and hydrodynamic diameters of ELP-substrate fusion as a function of temperature prior to, and after, enzymatic reaction. […] These changes are consistent with the self-assembly of ELP-substrate fusions (unimers) into micelles as the temperature is raised above the CMT (Ghoorchian, A. et al., The Journal of Physical Chemistry. B 2013, 117, 8865-8874). We note that there is a slight local maximum in both the optical density and hydrodynamic diameter at temperatures slightly above the CMT, which has been observed previously (Hassouneh, W., Duke University, PhD thesis, 2013); the origin of this small peak is, as yet, unclear.

[2] = target: T1, MMP-1 (Homo sapiens, UniProt P03956); assay: Kinetic study of MMP-1 cleavage (SDS-PAGE, Lineweaver-Burke plot); format: biochemical; conditions: substrate 25, 50, 100, 200 μM, enzyme 20 ng/mL, buffer, 40° C.
T1 construct: Human MMP-1 catalytic domain (recombinant, produced in E. coli, 19.9 kDa, >95% purity); purchased Enzo Life Sciences (Farmingdale, N.Y.); host or cells: E. coli
T1 sequence (P03956 100-269 limits assumed): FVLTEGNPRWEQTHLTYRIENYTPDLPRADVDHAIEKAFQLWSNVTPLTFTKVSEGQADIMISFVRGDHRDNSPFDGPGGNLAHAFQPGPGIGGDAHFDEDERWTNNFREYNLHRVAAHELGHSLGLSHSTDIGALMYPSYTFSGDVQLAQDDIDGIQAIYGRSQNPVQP
Description: We used mass spectrometry to examine the cleavage of the MMP-1 substrate peptide in the ELP-substrate fusion by measuring the molecular weight of the polypeptides prior to, and after incubation with MMP-1. We incubated 0.5 mL of 100 μM polypeptide in proteolysis buffer with 100 ng/mL of MMP-1 for 2 h at 25° C. […] For example, an enzymatic reaction can be written in general form as:
In which V0 is the initial rate of the enzymatic reaction at a given substrate concentration. Using equation Eq. 4, we can calculate Vmax by plotting 1/V0 versus 1/[S] at different substrate concentrations and a constant enzyme concentration and then calculate kcat by implementing equation Eq. 3.
We performed a series of kinetic studies in which the concentration of the substrate in the buffer solution was chosen to be 25, 50, 100, and 200 μM. We then added 20 ng/mL of enzyme to each of the solutions and kept all the solutions at a constant temperature (40′C). […] We quantified these changes by image analysis (ImageJ software) and used them to quantify the amount of product for each substrate concentration at each sampling time. We then calculated the initial rate of the reaction (V0) by using the concentration of the converted substrate and the time of reaction.
We then used equation Eq. 4 and plotted 1/[S] versus 1/[V0] […] From Vmax and equation Eq. 3, we calculated kcat to be equal to 8.0±1.9 s^−1. […]

[3] = target: T1, MMP-1; assay: Mass spectrometry of ELP-substrate fusion before and after incubation with MMP-1; format: biochemical; conditions: 100 μM polypeptide, 100 ng/mL MMP-1, 2 h at 25° C., proteolysis buffer
Description: as §1
We used mass spectrometry to examine the cleavage of the MMP-1 substrate peptide in the ELP-substrate fusion by measuring the molecular weight of the polypeptides prior to, and after incubation with MMP-1. […]

[4] = DLS, prior to enzymatic reaction

M(GVGVP)60GDGQVPMSMRGGDDEGQQDDEEGY (MGVGVPGDGQVPMSMRGGDDEGQQDDEEGY) [ELP-substrate fusion, recombinant polypeptide: ELP fused to MMP-1 substrate and charged hydrophilic peptide]
critical micellization temperature (CMT) ([1]; prior to enzymatic reaction): ≈ 38 °C and 38 °C
hydrodynamic diameter above Tt [1, 4]: ≈ 50 nm
hydrodynamic diameter below the CMT [1, 4]: < 10 nm
increase of OD350 as the solution is heated through the CMT ([1]; before enzymatic reaction): about 0.2 OD units
kcat [2]: 8.0 ± 1.9 s⁻¹
cleavage of the MMP-1 substrate peptide (mass spectrometry) [3]: most of the 1.8 kDa MMP-sensitive peptide is cleaved off
